From patent US20240084005A1 (ALLAKOS, published 2024)

What was measured:
[1] = biological target: T1, Siglec-6 (antigen of Example 8) (human, UniProt O43699 27-347, limits assumed); experiment: Siglec-6 binding ELISA after 2 weeks of forced degradation (elevated temperature, low pH)
Method: AK20 and AK21 were further evaluated in a forced degradation stability study. AK20 and AK21 (both using a wild-type human IgG1 Fc region with normal fucosylation) were incubated for 2 weeks at elevated temperatures and low pH followed by assessment of activity using a Siglec-6 binding ELISA.

[2] = biological target: T1, Siglec-6 (antigen of Example 8); experiment: Siglec-6 binding ELISA after 1 week of forced degradation (elevated temperature, low pH); 1 week of forced degradation (elevated temperatures and low pH)
[3] = biological target: T1, Siglec-6 (antigen of Example 8); experiment: Siglec-6 binding ELISA after 1 week of forced degradation (elevated temperature, low pH)

T1 sequence (O43699 27-347 limits assumed): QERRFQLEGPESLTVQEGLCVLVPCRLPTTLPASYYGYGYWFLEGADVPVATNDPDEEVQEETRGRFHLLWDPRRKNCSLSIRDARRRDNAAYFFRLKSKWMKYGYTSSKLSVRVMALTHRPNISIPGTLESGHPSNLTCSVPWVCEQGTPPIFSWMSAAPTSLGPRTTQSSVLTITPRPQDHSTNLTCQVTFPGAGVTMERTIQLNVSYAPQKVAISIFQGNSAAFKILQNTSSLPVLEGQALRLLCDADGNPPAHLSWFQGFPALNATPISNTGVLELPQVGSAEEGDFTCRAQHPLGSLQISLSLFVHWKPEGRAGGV

Row | EC50 [1] | EC50 [2] | EC50 [3] | Binder
1 | 6.4 ng/mL | 6.5 ng/mL | – | AK20 (wild-type human IgG1 Fc) (antibody, V domains shown, Tested after forced degradation) VH: QVQLQESGPGLVKPSETLSLTCTVSGFSLTSYGVSWIRQPPGKGLEWIGVIWHDGSTSYHPSLKSRVTISRDTSKNQVSLKLSSVTAADTAVYYCASDGYSGTFAYWGQGTLVTVSS VL: QIVVTQSPATLSLSPGERATLSCTASSSVSSSYLHWYQQKPGQAPRLLIYSTSILASGIPARFSGSGSGTDFTLTISSLQPEDFAVYYCHQYHRSPYTFGQGTKLEIK
2 | 9.3 ng/mL | – | 9.1 ng/mL | AK21 (wild-type human IgG1 Fc) (antibody, V domains shown, Tested after forced degradation) VH: QVQLQESGPGLVKPSETLSLTCTVSGFSLSSYGVSWIRQPPGKGLEWIGVIWHDGSTNYNPSLKSRVTISRDTSKNQVSLKLSSVTAADTAVYYCASDGYSGTFAYWGQGTLVTVSS VL: QIVVTQSPATLSLSPGERATLSCTASSSVSSSYLHWYQQKPGQAPRLLIYSTSILASGIPARFSGSGSGTDFTLTISSLQPEDFAVYYCHQYHRSPYTFGQGTKLEIK
